Assay results: paper PMC4820699, “Localisation and protein-protein interactions of the Helicobacter pylori taxis sensor TlpD and their connection to metabolic functions” (Scientific Reports, 2016)

Target: T1, purified recombinant H. pylori catalase (KatA) (H. pylori, UniProt P77872 1-505)
T1 construct: Catalase KatA of Helicobacter pylori, recombinant, active, tag-free; source: E. coli, recombinant, tag-free, purified
T1 sequence: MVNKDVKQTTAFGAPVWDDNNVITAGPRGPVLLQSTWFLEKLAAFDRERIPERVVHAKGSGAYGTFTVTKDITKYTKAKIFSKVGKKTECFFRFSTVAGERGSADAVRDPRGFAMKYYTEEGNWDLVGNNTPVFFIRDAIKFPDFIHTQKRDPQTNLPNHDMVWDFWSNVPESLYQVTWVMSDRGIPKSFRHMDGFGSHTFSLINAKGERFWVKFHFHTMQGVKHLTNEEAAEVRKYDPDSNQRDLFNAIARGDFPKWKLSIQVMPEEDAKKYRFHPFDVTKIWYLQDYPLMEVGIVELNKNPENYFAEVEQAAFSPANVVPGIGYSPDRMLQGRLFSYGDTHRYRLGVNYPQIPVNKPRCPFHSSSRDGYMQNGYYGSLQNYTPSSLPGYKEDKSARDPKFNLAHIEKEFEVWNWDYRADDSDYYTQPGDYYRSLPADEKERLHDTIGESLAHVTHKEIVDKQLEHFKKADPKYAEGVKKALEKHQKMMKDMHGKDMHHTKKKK
Assay: BLI; Octet RED96; inverse setting: ligand KatA (tag-free) coupled to the sensor via free amine groups, analyte TlpD-V5 at 200, 400 and 2,000 nM in assay buffer, association 1,800 sec; two-state parallel binding model
Conditions: both partners purified

B1: TlpD-V5 (purified from H. pylori) (natural protein)
chain: not shown
notes: Transducer-like protein / energy taxis sensor TlpD of Helicobacter pylori; tlpD-V5 fusion gene with the potential tlpD promoter region in pHel2; also called TlpD (V5-tagged); native TlpD-V5; not shown: V5, C-terminal, kept
- KD (fast on, slow off; two-state parallel model): 275 nM
- KD (slow on, fast off; two-state parallel model): 2000 nM
